Values quoted from earlier work as cited in PMC1854907.

Target: SCP2 PTS1 peptide (Homo sapiens)
Assay: ITC

**Q.** For “Pex5p(C) C-terminal domain (from UniProt P50542)”, which Kd is on record?
**A.** 0.664 µM
